The values that follow come from the supplement of paper PMC5998384.

The subject of data set [1] is HeLa Kyoto. As to the kind of experiment: solubility change mitosis vs G1/S (difference of NP-40 vs SDS log2 ratios) (log2 ratio difference); higher = more soluble in mitosis.
Data set [2] concerns HeLa Kyoto. As to the kind of experiment: solubility in G1/S (NP-40 vs SDS abundance) (log2 ratio); higher = more soluble. To be noted: cell cycle stage: G1/S.
The test system of data set [3] is HeLa Kyoto. As to the kind of experiment: melting temperature (median over replicates), in situ; higher = more thermally stable.
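Throughout, for melting temperature (median over replicates), in situ: HeLa Kyoto cells synchronized by double thymidine or nocodazole block, proteins quantified by TMT10plex mass spectrometry, three independent biological replicates.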
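Throughout, for solubility change mitosis vs G1/S (difference of NP-40 vs SDS log2 ratios): synchronized HeLa Kyoto cells (double thymidine block for G1/S, nocodazole release for mitosis), protein amounts in NP-40 versus SDS lysates quantified by mass spectrometry, three biological replicates.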
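Throughout, for solubility in G1/S (NP-40 vs SDS abundance): HeLa Kyoto cells arrested at G1/S by double thymidine block, proteins quantified by TMT10plex mass spectrometry in mild NP-40 versus SDS extracts, three biological replicates.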

LLPH, sequence (chain, as listed by the source): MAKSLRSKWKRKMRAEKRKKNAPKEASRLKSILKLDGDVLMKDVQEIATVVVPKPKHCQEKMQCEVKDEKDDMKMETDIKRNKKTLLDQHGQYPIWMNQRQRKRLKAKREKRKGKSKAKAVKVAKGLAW
TFAP2A, sequence (chain, as listed by the source): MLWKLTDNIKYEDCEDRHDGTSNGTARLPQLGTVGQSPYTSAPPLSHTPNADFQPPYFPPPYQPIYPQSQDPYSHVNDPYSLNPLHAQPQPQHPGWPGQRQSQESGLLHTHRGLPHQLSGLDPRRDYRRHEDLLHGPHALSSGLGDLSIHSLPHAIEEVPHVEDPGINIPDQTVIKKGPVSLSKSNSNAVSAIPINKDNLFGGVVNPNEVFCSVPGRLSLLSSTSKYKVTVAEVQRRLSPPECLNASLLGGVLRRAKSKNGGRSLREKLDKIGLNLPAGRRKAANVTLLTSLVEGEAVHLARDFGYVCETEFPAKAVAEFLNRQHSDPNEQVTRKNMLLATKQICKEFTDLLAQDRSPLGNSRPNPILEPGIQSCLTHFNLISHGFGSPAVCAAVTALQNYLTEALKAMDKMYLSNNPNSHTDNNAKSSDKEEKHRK
UBE2D1, sequence (chain, as listed by the source): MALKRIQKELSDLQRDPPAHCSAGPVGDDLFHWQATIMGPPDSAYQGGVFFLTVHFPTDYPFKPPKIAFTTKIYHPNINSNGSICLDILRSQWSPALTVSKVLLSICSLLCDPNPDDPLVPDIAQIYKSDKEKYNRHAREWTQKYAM

Turning to ARSB, the “solubility change mitosis (log2)” value in the data set on HeLa Kyoto [1] is -0.198. Further, the “solubility in G1/S (log2)” value with HeLa Kyoto [2] was 0.364. Also, the results for the melting temperature with HeLa Kyoto [3] (cell cycle stage: G1/S) and in the data set on HeLa Kyoto [3] (cell cycle stage: mitosis) were 56.3 °C and 57.3 °C, respectively.
Turning to CRYBG3, the “solubility change mitosis (log2)” value in the data set with HeLa Kyoto [1] is -0.00814. Also, in the data set on HeLa Kyoto [2], the “solubility in G1/S (log2)” value was -0.18. In addition, the melting temperature in the data set on HeLa Kyoto [3] (cell cycle stage: G1/S) amounted to 51.3 °C; in the data set with HeLa Kyoto [3] (cell cycle stage: mitosis), 50.4 °C.
Take GTF2H1: the “solubility change mitosis (log2)” value in the data set with HeLa Kyoto [1] worked out at 0.114. In addition, in the data set with HeLa Kyoto [2], the “solubility in G1/S (log2)” value was -0.0948. In addition, the melting temperature with HeLa Kyoto [3] (cell cycle stage: G1/S) is 50.2 °C; in the data set on HeLa Kyoto [3] (cell cycle stage: mitosis) it was 49.1 °C.
For KIAA1217 the same measures were 0.0131, 0.0766, 49.8 °C and 50.7 °C.
For LLPH, the “solubility change mitosis (log2)” value with HeLa Kyoto [1] came out at 1.03. Also, the “solubility in G1/S (log2)” value in the data set with HeLa Kyoto [2] was -1.23. Moreover, the melting temperature in the data set on HeLa Kyoto [3] (cell cycle stage: G1/S) came out at 58.7 °C; in the data set on HeLa Kyoto [3] (cell cycle stage: mitosis), 55.8 °C.
As to “MAAAAAALSGAGTPPAGGGAGGGGAGGGGSPPGGWAVARLEGREFEYLMKKRSVTIGRNSSQGSVDVSMGHSSFISRRHLEIFTPPGGGGHGGAAPELPPAQPRPDAGGDFYLRCLGKNGVFVDGVFQRRGAPPLQLPRVCTFRFPSTNIKITFTALSSEKREKQEASESPVKAVQPHISPLTINIPDTMAHLISPLPSPTGTISAANSCPSSPRGAGSSGYKVGRVMPSDLNLMADNSQPENEKEASGGDSPKDDSKPPYSYAQLIVQAITMAPDKQLTLNGIYTHITKNYPYYRTADKGWQNSIRHNLSLNRYFIKVPRSQEEPGKGSFWRIDPASESKLIEQAFRKRRPRGVPCFRTPLGPLSSRSAPASPNHAGVLSAHSSGAQTPESLSREGSPAPLEPEPGAAQPKLAVIQEARFAQSAPGSPLSSQPVLITVQRQLPQAIKPVTYTVATPVTTSTSQPPVVQTVHVVHQIPAVSVTSVAGLAPANTYTVSGQAVVTPAAVLAPPKAEAQENGDHREVKVKVEPIPAIGHATLGTASRIIQTAQTTPVQTVTIVQQAPLGQHQLPIKTVTQNGTHVASVPTAVHGQVNNAAASPLHMLATHASASASLPTKRHNGDQPEQPELKRIKTEDGEGIVIALSVDTPPAAVREKGVQN [FOXK2]”, the “solubility change mitosis (log2)” value in the data set with HeLa Kyoto [1] is -0.0189. Moreover, the “solubility in G1/S (log2)” value in the data set on HeLa Kyoto [2] is 0.267. This substance gave a melting temperature in the data set with HeLa Kyoto [3] (cell cycle stage: mitosis) of 50.7 °C.
For the substance “MWVNPEEVLLANALWITERANPYFILQRRKGHAGDGGGGGGLAGLLVGTLDVVLDSSARVAPYRILYQTPDSLVYWTIACGGSRKEITEHWEWLEQNLLQTLSIFENENDITTFVRGKIQGIIAEYNKINDVKEDDDTEKFKEAIVKFHRLFGMPEEEKLVNYYSCSYWKGKVPRQGWMYLSINHLCFYSFLMGREAKLVIRWVDITQLEKNATLLLPDVIKVSTRSSEHFFSVFLNINETFKLMEQLANIAMRQLLDNEGFEQDRSLPKLKRKSPKKVSALKRDLDARAKSERYRALFRLPKDEKLDGHTDCTLWTPFNKMHILGQMFVSTNYICFTSKEENLCSLIIPLREVTIVEKADSSSVLPSPLSISTRNRMTFLFANLKDRDFLVQRISDFLQQTTSKIYSDKEFAGSYNSSDDEVYSRPSSLVSSSPQRSTSSDADGERQFNLNGNSVPTATQTLMTMYRRRSPEEFNPKLAKEFLKEQAWKIHFAEYGQGICMYRTEKTRELVLKGIPESMRGELWLLLSGAINEKATHPGYYEDLVEKSMGKYNLATEEIERDLHRSLPEHPAFQNEMGIAALRRVLTAYAFRNPNIGYCQAMNIVTSVLLLYAKEEEAFWLLVALCERMLPDYYNTRVVGALVDQGVFEELARDYVPQLYDCMQDLGVISTISLSWFLTLFLSVMPFESAVVVVDCFFYEGIKVIFQLALAVLDANVDKLLNCKDDGEAMTVLGRYLDSVTNKDSTLPPIPHLHSLLSDDVEPYPEVDIFRLIRTSYEKFGTIRADLIEQMRFKQRLKVIQTLEDTTKRNVVRTIVTETSFTIDELEELYALFKAEHLTSCYWGGSSNALDRHDPSLPYLEQYRIDFEQFKGMFALLFPWACGTHSDVLASRLFQLLDENGDSLINFREFVSGLSAACHGDLTEKLKLLYKMHVLPEPSSDQDEPDSAFEATQYFFEDITPECTHVVGLDSRSKQGADDGFVTVSLKPDKGKRANSQENRNYLRLWTPENKSKSKNAKDLPKLNQGQFIELCKTMYNMFSEDPNEQELYHATAAVTSLLLEIGEVGKLFVAQPAKEGGSGGSGPSCHQGIPGVLFPKKGPGQPYVVESVEPLPASLAPDSEEHSLGGQMEDIKLEDSSPRDNGACSSMLISDDDTKDDSSMSSYSVLSAGSHEEDKLHCEDIGEDTVLVRSGQGTAALPRSTSLDRDWAITFEQFLASLLTEPALVKYFDKPVCMMARITSAKNIRMMGKPLTSASDYEISAMSG [TBC1D9]”, in the data set on HeLa Kyoto [1], the “solubility change mitosis (log2)” value was 0.38. Besides, the “solubility in G1/S (log2)” value in the data set on HeLa Kyoto [2] is -0.4.
For MYLK the same measures were 0.101 and -0.635.
With “MYRLMSAVTARAAAPGGLASSCGRRGVHQRAGLPPLGHGWVGGLGLGLGLALGVKLAGGLRGAAPAQSPAAPDPEASPLAEPPQEQSLAPWSPQTPAPPCSRCFARAIESSRDLLHRIKDEVGAPGIVVGVSVDGKEVWSEGLGYADVENRVPCKPETVMRIASISKSLTMVALAKLWEAGKLDLDIPVQHYVPEFPEKEYEGEKVSVTTRLLISHLSGIRHYEKDIKKVKEEKAYKALKMMKENVAFEQEKEGKSNEKNDFTKFKTEQENEAKCRNSKPGKKKNDFEQGELYLREKFENSIESLRLFKNDPLFFKPGSQFLYSTFGYTLLAAIVERASGCKYLDYMQKIFHDLDMLTTVQEENEPVIYNRARFYVYNKKKRLVNTPYVDNSYKWAGGGFLSTVGDLLKFGNAMLYGYQVGLFKNSNENLLPGYLKPETMVMMWTPVPNTEMSWDKEGKYAMAWGVVERKQTYGSCRKQRHYASHTGGAVGASSVLLVLPEELDTETINNKVPPRGIIVSIICNMQSVGLNSTALKIALEFDKDRSD [LACTB]”, in the data set with HeLa Kyoto [1], the “solubility change mitosis (log2)” value was found to be 0.376. Also, in the data set on HeLa Kyoto [2], the “solubility in G1/S (log2)” value is -2.26.
With “MYRSGERLLGSHALPAEQRDFLPLETTNNNNNHHQPGAWARRAGSSASSPPSASSSPHPSAAVPAADPADSASGSSNKRKRDNKASGGRAAGGGRADGGGVVYSGTPWKRRNYNQGVVGLHEEISDFYEYMSPRPEEEKMRMEVVNRIESVIKELWPSADVQIFGSFKTGLYLPTSDIDLVVFGKWENLPLWTLEEALRKHKVADEDSVKVLDKATVPIIKLTDSFTEVKVDISFNVQNGVRAADLIKDFTKKYPVLPYLVLVLKQFLLQRDLNEVFTGGIGSYSLFLMAVSFLQLHPREDACIPNTNYGVLLIEFFELYGRHFNYLKTGIRIKDGGSYVAKDEVQKNMLDGYRPSMLYIEDPLQPGNDVGRSSYGAMQVKQAFDYAYVVLSHAVSPIAKYYPNNETESILGRIIRVTDEVATYRDWISKQWGLKNRPEPSCNGPVSSSSATQSSSSDVDSDATPCKTPKQLLCRPSTGNRVGSQDVSLESSQAVGKMQSTQTTNTSNSTNKSQHGSARLFRSSSKGFQGTTQTSHGSLMTNKQHQGKSNNQYYHGKKRKHKRDAPLSDLCR [PAPD5]”, the “solubility change mitosis (log2)” value in the data set with HeLa Kyoto [1] amounted to 0.189. Also, the “solubility in G1/S (log2)” value in the data set with HeLa Kyoto [2] is -0.654.
For PEAK1 the same measures were 0.302 and -0.569.
For PHRF1 the same measures were 0.566 and -0.629.
For PPP3R1 the same measures were -0.104 and 0.385.
For the substance PTPN6, the “solubility change mitosis (log2)” value in the data set with HeLa Kyoto [1] was 0.0101. For the same substance, the “solubility in G1/S (log2)” value with HeLa Kyoto [2] came to 0.166.
For RLF the same measures were 0.617 and -0.887.
On to SYNM, for which the “solubility change mitosis (log2)” value in the data set on HeLa Kyoto [1] amounted to 0.752. In the data set with HeLa Kyoto [2], the “solubility in G1/S (log2)” value is -0.94.
Regarding TET2, in the data set on HeLa Kyoto [1], the “solubility change mitosis (log2)” value is -0.257. Further, the “solubility in G1/S (log2)” value with HeLa Kyoto [2] amounted to 0.155.
On to TFAP2A, for which the “solubility change mitosis (log2)” value with HeLa Kyoto [1] came out at 0.505. Moreover, the “solubility in G1/S (log2)” value in the data set with HeLa Kyoto [2] was 0.185.
For UBE2D1 the same measures were -0.0476 and 0.473.
For VPS13B the same measures were -0.0582 and -0.247.
